A value given as a limit tells only on which side of the number the result lay.

The values below come from the supplement of paper PMC12455559.

This data set can be described thus: purified protein yield per well (BCA); higher = higher soluble expression. In a few lines:
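The measured quantity is purified protein yield per well, determined with the Pierce Rapid Gold BCA kit. Anything below 25 ug (0.1 mg/mL) lies under the detection threshold. Enzymes were expressed in E. coli C41(DE3) in 2 mL autoinduction cultures with 100 µg/mL kanamycin at 37 °C for 2 h, then 18 °C for 40 h, and purified on an OT-2 robot using Ni-charged magnetic beads and SUMO protease release.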
Turning to “DENPLERGPDPTESFIEQRRGNYDVAQRSINRMGSDGFRNGTIYYPTDSSDGQFGVIAISPGYTAGESSIAWLGARMASFGFVVVTINTTTRYDQPRQRSTQLLAALDHAMEDSVVGPMIDPERQAVMGHSMGGGGALQAAESRPEIDAVIPLTPWNLKRNWRNIDAATLIIGAERDTIASVRTHSIPFYESLTGADQRGYLELRGASHFAPNFSNTTIAKYSVAWMKRHLDDDERYEKFLTPGPTVGYSSGVSDYRLQ [DP097]”, the “purified protein yield per well” value was under 25 µg.
Regarding “GPFAVSSVTVPAGSGPGFNDGTIYYPTDTSQGTFGAVVIMPGFVAVQGQIAWYGPRLASQGFVVMTMDSNALWDFPSDRSRQQLAALNYLTTKSPVKSRIDPNRLALMGWSMGGGGTLESAAANPSLKAAIPLAPWDITNPGDQISVPTMIFGADGDTVAPVSTFTRPAYDALTNTHDKAFVELKGADHFTFASPNTTVAKYSISWLKRFVDNDTRYDQFLCPIPN [TEP056]”, the “purified protein yield per well” value is under 25 µg.
The value for “VQIGPNPTKASLEASSGPFTVGKFTISRPSGYAAGTVYYPTNAGAKVGVISIVPGFVSYQSSVAWWGPRLASHGFVVVTIDTNTTVDQPDSRSRQQLAALDQVVALGNNSSSPLYNKIDGTRTGVMGWSMGGGGSLISAKNRPSIKAAAPQAPWASLTSFSSLTVPTLIFSCQSDIVAPVATHANSFYNEMSRNPKQLLEKTLGDHFCMNSANPTVGLKGVAWMKRFIDGDTRYTTFACSNPNAFGFSDFRTARCS [ESM111]” was under 25 µg; that for “CAAQAQTSPPTSASLNATAGPLSVSTSSVSSWAARGFGGGTIYYPNATGRYGVVAISPGYTARQSSIAWLGRRLATHGFVVITIDTNSTLDQPPSRATQLMAALNHVVNNANATVRSRVDASKLAVAGHSMGGGGSLIAAENNPSLKAAYPLTPWSVSKNYSSVRVPTMIIGADGDSIASVSTHSRLFYNSLSSNVSKAYGELNNASHFTPNYTNTPIGRYAVTWMKRFVDNDTRYSPFLCGAPHDSYATRTVFDRYEDNCAY [ESM071]” was under 25 µg; that for “SAPVHHRAATHTSAAAHHHAPFAVRTTVVPRTAVTKFGGGVIYAPLDTGKPVLGAVVITPGFTDTNANEKEMAELVASQGFVAFAIDTLTTDDLPDLRAAQMLAAADYLTGQSAVRSEVSQDDVGLIGYSFGGGGTMQAAQSRPSIKAAIGLMPFDFPPATDPNAMYPSYPKMTTPTLVITGQKDDVADPKDFGKPAYDSIPAGTPKQYLELAGIGHEGGQHVPSATIRNAVTAFLKRYLDGNSAYAKFICPAPKVGGPISASLSSCPKG [ESM131]” was under 25 µg.
Turning to “NPYERGPAPTTASLEASRGPFATSSFTVSRPSGYGAGTVYYPTNAGGTVGAIAIVPGFLARQSSINWWGPRLASHGFVVITIDTNSTFDQPTSRSRQQLAALDQVAALARTSSSPIYNRVDTTRMGVMGWSMGGGGTLISAQNRPSLKAAAPQAPWNNSTNFSSVTVPTLILACESDSTAPVNQHASPFYNSMSRNSKQYLEINNGSHSCANSGNSNQPLIGKRGVAWMKRFMDNDTRYTSFACANPNSTRVSEFRTANCS [ESM076]”, the “purified protein yield per well” value is under 25 µg.
Regarding “APQAPENPYQRGPAPTEQSIVADRGSFEVERISVGSWSGPGFNKGTIYAPKDRSQGTFGAIAVSPGFVSPEYLISWYGERLASRGFVVMTIETTTLYDQPAQRGDQLLAALDYVVSDDSPVRDRVDPNRLAVMGHSMGGGGTLHAVKERKSLKAAVPLMPWNLFTDWGDVQTPTMIIGAQNDLIASVGLHSEPFYNSLRSAREKAYLEMDGAGHLVANSPNDTIAKYTIAWMKRYVDNDTRYEQFLCPAPSRDRNISEYRDTCPGS [DP015]”, the “purified protein yield per well” value is under 25 µg.
“ADNPYQRGPDPTERSVTARRGPFAIDEISVNGGIGAGFNRGTIFYPTDRSQGTFGAVAVIPGFLSPESLVRWFGPRLASQGFVVMTLTTNGLTDTPESRSEQLLAALDYLTTRSQVRDRIDPSRLAVMGHSMGGGGSLAAAAKRPTLRAAIPLAPWSLTKNWSNLTVPTLIIGAENDNVAPVAGHSERFYDSMTNVPEKAYLEMAGGNHVDPTAESDLVAKFTISWLKRFVDDDTRYDQFLCPAPRPNRQISEYRDTCPHS [DP029]”: the “purified protein yield per well” value was under 25 µg.
For “HGFNGGYIYYPTDTSQTFGAVAIVPAYTALFADEEAWMGPRLASFGFVVIGIETNSREDWDRARGAQLLAGLDYLTQHSAVRTRIDARRLAVIGHSMGGGGAFAAAARRPSLRAVVGLTPYFPSGDLATIRVPTLIIGGQNDTTVTPSYLERLYASLPTRTPSAYVMLADADHLFPTKPNPDQMRVLVPWLKIFVDKDVRYTRFLCPLADRSGISQYQVTCPLVPTV [TEP043]”, the “purified protein yield per well” value is under 25 µg.
For “QVANPYAKGPNPTEASVTATTGPFAVTTSNISSLVSGFGGGRLYYPTATNQGTYGAIALSPGFTAGWSSIDWLGPRLASFGFVVIGIETNSRYDYPPSRGEQLLAALDWAVEDSPAASRIDPTRLAVGGHSMGGGGSLEAASDRPSLKAVLPLAPWNSDKTWNEVQVPTLIIGGESDTVAPVGSHSTPFYNSLSGEKAFLELNNASHFFPQSPNNLVAKLAISWAKRWVDNDTRYSQFLCPGPASGGLSEVQAYRQTCPF [TEP096]”, the “purified protein yield per well” value is under 25 µg.
Regarding “QTSAPTSSSLNATSGYLSVASENVSSLSASGFGGGTIYYPSTSGQYGLIAISPGFTATESSVAWIGRKLASHGFVAIVINTNTTLDQPASRARQLRAALDHARLRASSTVRSRIDASRQAVAGHSMGGGGSLIAAEDDPTLKASFPLTPWNTTTSFTNVRVPTMIFGADGDTIAAVAAHARPFYASIPSSTKKAYAELNGATHFTPNSRNEAIGRYGVAWMKRFMDNDTRYSTFLCGSEHNSYNTSLRFDRYNSNCPY [ESM123]”, the “purified protein yield per well” value is under 25 µg.
Regarding “VEIGPAPTSTLLNGDGPFAVSTDSVSSLVTGFGGGTIYYPTTSGQYAAVAVCPGFTGTSSSISWFARRLATHGFVTIAMNTNTIYDYPSSRATQLAAALRYLLNSSSSTIRARIRTADRAVAGHSMGGGGTLIASANDSTLRAGIPLTPWNTYTSFSSVRVPQMIFGADGDTIAPYASHARPFYNSLSYPEKAYALLNGATHFTPNSTDQRIGRYGVAFAKRFVDGDTRYTPFLCGAEHTAYATSSRFDTYLSTCPY [TEP032]”, the “purified protein yield per well” value is under 25 µg.
“QTTAPTSSSLNATAGPYSVSTSSVTLPVGFGGGTVYYPTQTGKYGVIAISPGFTATQSSIAWLGRRLATHGFVVLTMNTLTTLDQPASRANQLMAALNYVLNSSPSAVRSRADGTRTAVAGHSMGGGGSLIAARDYPTLKASYPMTPWSPTSNFSTVRVPTMIIGADGDTIAPVATMSRVYYQNLPSTTSKAYGELNNATHFAPNMTNTPIGRYAVTWMKRFVDSDTRYSPFLCGAPHQAYATSLVFDRYSQNCPY [ESM083]”: the “purified protein yield per well” value is under 25 µg.
Then “WTPDPEPPGPVPEPCNTDCSQGPYPTTGSVEANMGPFSISSVSVPWTVSGFGGGTIYYPSSGTTGSLGAIALIPGFLGPEWTISAWGERLASHGFIVITVATNAVTDQPDSRATQLSRALDHVIIESGSTSSPIYGMVDPNRLGAMGISMGGGGTLKLTSDRTLSAAVPMVPWYLGFNDFESIDTPTLIIGCENDTIAPVALHSIPFYNAISDDVDKAYLEMNNGSHGCVAGLTNVDILGKYAVSWMKRFIDNDQRYDQFLCGPNHTAPFSVSDYRDNCDY [DP096]”, with under 25 µg; and “VENGPAPTVSSVRADAGSYSVSKTSYADNVTPGFGAATVYAPSNTTGQKFGVVSFAPGWTENQSAVDWIARRTASFGFVTIVFDVNNTFFDFPAARAPQLIAALNFVTGTSNQRNLADASREAVVGHSMGGGATLDAARANPSLKATVGLAPWNPGISYSDVTVPSLEIGAQNDFIAGVSNNARYFYNSLPGSTPKAYTEMKSFGHLQTNYPSAQVGAATVSWLKRYVDGDTRYAPFICGAHTGVQNSELSAYASNC [ESM168]”, with under 25 µg; and “QDNPYERGPDPTESLIEASRGPFSVSQTSVSSLVSGFGGGTIYYPTSTSEGTFGAVAISPGFTATESSIAWMGPRLASHGFVVITIDTNTIYDQPSSRGDQLLAALDYMTEDNLTVRGRIDSSRLAVAGHSMGGGGSLEAASSRPALQAAVPLAPWNTDKSWSELRTPTLIIGGESDSIAPVATHSIPFYNSIPASAEKAYLELDNASHFFPQTPNTTQAKYMLSWLKRFVDNDTRYEQFLCPAPDDRDISDYRDTCPHA [TEP150]”, with under 25 µg.
